Test results published in paper PMC11959585.

Key:
[1] = biological target: PEX14 16-80 (Homo sapiens) (UniProt O75381); assay: SPR; conditions: cited from earlier work
[2] = biological target: PEX14 16-80 (Homo sapiens) (UniProt O75381); assay: ITC; conditions: cited from earlier work
[3] = biological target: His-tagged transcriptional activation domain of the tumor suppressor protein p53 (UniProt P04637); assay: solution-phase LSPR peak shift of nanoparticles (UV–vis); hTAD ([…]) immobilised by its His-tag on NTA-Ni AgDNP@Au nanobiosensors (~0.025 nM), NCBD (0.27 μM) added; 10 mM Tris, 30 mM NaCl, 0.025 wt % Tween 20, pH 7.5; near equilibrium (25 min)
[4] = biological target: His-tagged transcriptional activation domain of the tumor suppressor protein p53 (UniProt P04637); assay: solution-phase LSPR peak shift of nanoparticles (UV–vis); hTAD ([…]) immobilised by its His-tag on NTA-Ni AgDNP@Au nanobiosensors (~0.025 nM), NCBD (0.27 μM) or BSA ([…]) added; 10 mM Tris, 150 mM NaCl, 0.025 wt % Tween 20, pH 7.5; near equilibrium (25 min)
[5] = biological target: His-tagged transcriptional activation domain of the tumor suppressor protein p53 (UniProt P04637); assay: solution-phase LSPR peak shift of nanoparticles (UV–vis); hTAD ([…]) immobilised by its His-tag on NTA-Ni AgDNP@Au nanobiosensors (~0.025 nM), NCBD (0.27 μM) added; 10 mM Tris, 10 mM NaCl, 0.025 wt % Tween 20, pH 7.5; nanoparticles aggregated after several minutes

PEX14 16-80 (Homo sapiens), sequence (O75381 16-80): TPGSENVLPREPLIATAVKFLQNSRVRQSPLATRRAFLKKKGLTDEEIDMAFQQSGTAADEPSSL
His-tagged transcriptional activation domain of the tumor suppressor protein p53, sequence (P04637 whole entry, the tested form may be a part): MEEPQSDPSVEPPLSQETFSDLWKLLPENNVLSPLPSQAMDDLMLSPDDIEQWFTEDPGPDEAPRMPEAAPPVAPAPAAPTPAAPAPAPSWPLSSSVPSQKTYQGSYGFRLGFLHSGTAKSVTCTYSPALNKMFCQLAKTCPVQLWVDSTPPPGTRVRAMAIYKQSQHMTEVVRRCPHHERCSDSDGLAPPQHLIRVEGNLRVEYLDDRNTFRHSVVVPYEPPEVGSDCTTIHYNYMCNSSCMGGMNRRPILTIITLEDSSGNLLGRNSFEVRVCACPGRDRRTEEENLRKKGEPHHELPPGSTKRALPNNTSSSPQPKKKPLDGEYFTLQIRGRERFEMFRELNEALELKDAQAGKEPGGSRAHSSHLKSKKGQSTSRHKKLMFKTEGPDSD

second LSPR peak redshift (30 mM NaCl) [3] [nm] | second LSPR peak redshift (150 mM NaCl) [4] [nm] | LSPR peak redshift after addition of NCBD (10 mM NaCl) [5] [nm] | Substance | Kd [1] [nM] | Kd [2] [µM]
– | – | – | PEX5 1-113 (from UniProt P50542) | 87 | 0.157
– | – | – | PEX5 W4 motif W4 (from UniProt P50542) | – | 6.3
3.2 | 1 | 6.2 | nuclear receptor coactivator binding domain of the CREB-binding protein (from UniProt Q92793 1-2442) (domain or fragment) | – | –
